According to article PMC2164959:

Molecular target: AU1-tagged codon-optimised HPV16 E5 mutant M1 (human papillomavirus type 16) (UniProt P06927)
Assay: co-IP; HEK-293T transfected, lysed 20-24 h after transfection in CHAPS buffer (0.2 M NaCl, 50 mM HEPES pH 7.5, 2% CHAPS); immunoprecipitation by the tag of E5 (anti-AU1, anti-HA or anti-GFP), protein G-sepharose, blot with anti-calnexin

B1: calnexin (natural protein)
chain: HDGHDDDVIDIEDDLDDVIEEVEDSKPDTTAPPSSPKVTYKAPVPTGEVYFADSFDRGTLSGWILSKAKKDDTDDEIAKYDGKWEVEEMKESKLPGDKGLVLMSRAKHHAISAKLNKPFLFDTKPLIVQYEVNFQNGIECGGAYVKLLSKTPELNLDQFHDKTPYTIMFGPDKCGEDYKLHFIFRHKNPKTGIYEEKHAKRPDADLKTYFTDKKTHLYTLILNPDNSFEILVDQSVVNSGNLLNDMTPPVNPSREIEDPEDRKPEDWDERPKIPDPEAVKPDDWDEDAPAKIPDEEATKPEGWLDDEPEYVPDPDAEKPEDWDEDMDGEWEAPQIANPRCESAPGCGVWQRPVIDNPNYKGKWKPPMIDNPSYQGIWKPRKIPNPDFFEDLEPFRMTPFSAIGLELWSMTSDIFFDNFIICADRRIVDDWANDGWGLKKAADGAAEPGVVGQMIEAAEERPWLWVVYILTVALPVFLVILFCCSGKKQTSGMEYKKTDAPQPDVKEEEEEKEEEKDKGDEEEEGEEKLEEKQKSDAEEDGGTVSQEEEDRKPKAEEDEILNRSPRNRKPRRE
Binder B1 has a percent of calnexin co-precipitated, relative to wild type of 50%.
